Assay results from patent publication US20210388110A1 (published 2021).
Numbering of substitutions follows the chain as printed. “And” between values parts separate entries of the source, which are not always exact repeats. Identical values can stand only once. Values belong to the binder of their own block, whether it stands above or below them.

How the values were obtained:
[1] = target: T1, soluble human CD3ε chain (human, UniProt P07766 23-126, limits assumed); experiment: SPR (Biacore), soluble human CD3ε chain
T1 construct: also called human CD3 epsilon chain
T1 sequence (P07766 23-126 limits assumed): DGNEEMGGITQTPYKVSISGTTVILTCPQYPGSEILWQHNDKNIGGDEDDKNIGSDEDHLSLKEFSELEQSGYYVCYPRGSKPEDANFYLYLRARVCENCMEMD

[2] = target: T2, soluble human GPC3 (human, UniProt P51654 25-563, limits assumed); experiment: SPR (Biacore), single-arm antibody, soluble human GPC3
T2 construct: also called glypican 3
T2 sequence (P51654 other isoform, or with tags, fused parts or gaps limits assumed, form in doubt): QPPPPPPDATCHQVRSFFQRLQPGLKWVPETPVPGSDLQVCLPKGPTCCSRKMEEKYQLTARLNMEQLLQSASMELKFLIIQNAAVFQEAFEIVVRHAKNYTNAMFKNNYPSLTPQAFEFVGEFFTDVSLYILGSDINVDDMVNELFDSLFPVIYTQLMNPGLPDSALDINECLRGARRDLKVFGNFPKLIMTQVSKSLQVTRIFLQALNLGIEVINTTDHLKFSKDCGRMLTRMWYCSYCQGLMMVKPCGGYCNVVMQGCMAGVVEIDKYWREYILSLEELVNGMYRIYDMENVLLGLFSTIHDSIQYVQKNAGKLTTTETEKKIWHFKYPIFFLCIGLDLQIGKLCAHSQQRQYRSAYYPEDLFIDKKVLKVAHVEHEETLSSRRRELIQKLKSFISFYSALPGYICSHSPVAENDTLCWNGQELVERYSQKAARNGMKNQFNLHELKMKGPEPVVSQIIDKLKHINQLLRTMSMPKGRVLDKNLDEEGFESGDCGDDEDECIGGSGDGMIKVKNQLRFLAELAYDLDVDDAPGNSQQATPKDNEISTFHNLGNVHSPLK

Kd [1]: 80 nM
B2: rCE115H-E22Hh/none-Hi-Kn010G3/L0000-k0 (antibody, human IgG1, kappa, L234A L235A, N297A)
heavy: EVQLVETGGSLVQPGKSLKLTCATSGFTFSNAWMHWVRQSPEKQLEWVAQIKAKSNNYATYYAESVKGRFTISRDDSKSNIYLQMNSLKEEDTAVYYCRYVHYGAYYGVDAWGQGTSVTVSSASTKGPSVFPLAPSSKSTSGGTAALGCLVKDYFPEPVTVSWNSGALTSGVHTFPAVLQSSGLYSLSSVVTVPSSSLGTQTYICNVNHKPSNTKVDKKVEPKSCDKTHTCPPCPAPEAAGGPSVFLFPPKPKDTLMISRTPEVTCVVVDVSHEDPEVKFNWYVDGVEVHNAKTKPREEQYASTYRVVSVLTVLHQDWLNGKEYKCKVSNKALPAPIEKTISKAKGQPREPQVYTLPPSRCELTKNQVSLSCAVKGFYPSDIAVEWESNGQPENNYKTTPPVLDSDGSFFLVSKLTVDKSRWQQGNVFSCSVMHEALHNHYTQKSLSLSPDYKDDDDK
chain: EPKSSDKTHTCPPCPAPELLGGPSVFLFPPKPKDTLMISRTPEVTCVVVDVSHEDPEVKFNWYVDGVEVHNAKTKPREEQYNSTYRVVSVLTVLHQDWLNGKEYKCKVSNKALPAPIEKTISKAKGQPREPQVCTLPPSRDELTKNQVSLWCLVKGFYPSDIAVEWESNGQPENNYKTTPPVLDSDGSFFLYSKLTVDKSRWQQGNVFSCSVMHEALHNRYTQKSLSLSP
light: DIVMTQSPLSLPVTPGEPASISCRSSQSLVHSNRNTYLHWYQQKPGQAPRLLIYKVSNRFSGVPDRFSGSGSGTDFTLKISRVEAEDVGVYYCGQGTQVPYTFGQGTKLEIKRTVAAPSVFIFPPSDEQLKSGTASVVCLLNNFYPREAKVQWKVDNALQSGNSQESVTEQDSKDSTYSLSSTLTLSKADYEKHKVYACEVTHQGLSSPVTKSFNRGEC
notes: one-arm antibody (single Fab) with Fab-less hinge-Fc chain Hi-Kn010G3

Kd [1]: 124 nM and 138 nM
B4: rCE115H-E22Hh/none-Hi-Kn010G3/rCE115L-k0 (antibody, human IgG1, kappa, L234A L235A, N297A)
heavy: B2 heavy
chain: B2 chain
light: DVVMTQTPVSMSVSLGGQVSISCRSSQSLVHNNGNTYVSWYIQKPSQSPQLLIYKVSNRFSGISDRFSGSGSGTDFTLKISRVEPDDLGVYYCGQGTQDPYTFGAGTKLELKRTVAAPSVFIFPPSDEQLKSGTASVVCLLNNFYPREAKVQWKVDNALQSGNSQESVTEQDSKDSTYSLSSTLTLSKADYEKHKVYACEVTHQGLSSPVTKSFNRGEC
notes: one-arm antibody (single Fab) with Fab-less hinge-Fc chain Hi-Kn010G3; also called rCE115H-E22Hh//-Hi-Kn010G3/rCE115L-k0

Kd [1]: 85.2 nM
B5: rCE115H-E22Hh/none-Hi-Kn010G3/L0000vk1-k0 (antibody, human IgG1, kappa, L234A L235A, N297A)
heavy: B2 heavy
chain: B2 chain
light: DIQMTQSPSSLSASVGDRVTITCRSSQSLVHSNRNTYLHWYQQKPGKAPKLLIYKVSNRFSGVPSRFSGSGSGTDFTFTISSLQPEDIATYYCGQGTQVPYTFGQGTKVEIKRTVAAPSVFIFPPSDEQLKSGTASVVCLLNNFYPREAKVQWKVDNALQSGNSQESVTEQDSKDSTYSLSSTLTLSKADYEKHKVYACEVTHQGLSSPVTKSFNRGEC
notes: as for B2

Kd [1]: 69.1 nM
B7: TR01H107-E22Hh/none-Hi-Kn010G3/L0011-k0 (antibody, human IgG1, kappa, L234A L235A, N297A)
heavy: QVQLVESGGGLVQPGRSLRLSCAASGFTFSNAWMHWVRQAPGKGLEWVAQIKDKSQNYATYQAESVKGRFTISRDDSKNSLYLQMNSLKTEDTAVYYCRYVHYAAGYGVDAWGQGTTVTVSSASTKGPSVFPLAPSSKSTSGGTAALGCLVKDYFPEPVTVSWNSGALTSGVHTFPAVLQSSGLYSLSSVVTVPSSSLGTQTYICNVNHKPSNTKVDKKVEPKSCDKTHTCPPCPAPEAAGGPSVFLFPPKPKDTLMISRTPEVTCVVVDVSHEDPEVKFNWYVDGVEVHNAKTKPREEQYASTYRVVSVLTVLHQDWLNGKEYKCKVSNKALPAPIEKTISKAKGQPREPQVYTLPPSRCELTKNQVSLSCAVKGFYPSDIAVEWESNGQPENNYKTTPPVLDSDGSFFLVSKLTVDKSRWQQGNVFSCSVMHEALHNHYTQKSLSLSPDYKDDDDK
chain: B2 chain
light: B2 light with S28P
notes: as for B2

Kd [1]: 69.5 nM
B8: TR01H105-E22Hh/none-Hi-Kn010G3/L0011-k0 (antibody, human IgG1, kappa, L234A L235A, N297A)
heavy: B7 heavy with Q62L
chain: B2 chain
light: B2 light with S28P
notes: as for B2

Kd [1]: 70.6 nM
B12: TR01H109-E22Hh/none-Hi-Kn010G3/L0011-k0 (antibody, human IgG1, kappa, L234A L235A, N297A)
heavy: B7 heavy with Q62V
chain: B2 chain
light: B2 light with S28P
notes: as for B2

Kd [1]: 69.8 nM
B13: TR01H108-E22Hh/none-Hi-Kn010G3/L0011-k0 (antibody, human IgG1, kappa, L234A L235A, N297A)
heavy: B7 heavy with Q62T
chain: B2 chain
light: B2 light with S28P
notes: as for B2

Kd [1]: 108 nM
B16: hCE115HAa-E22Hh/none-Hi-Kn010G3/L0000-k0 (antibody, human IgG1, kappa, L234A L235A, N297A)
heavy: B7 heavy with L11V, R16G, D53A, Q56N, Q62Y, A104G, G106Y
chain: B2 chain
light: B2 light
notes: as for B2

Kd [1]: 124 nM
B17: hCE115HA-E22Hh/none-Hi-Kn010G3/L0000-k0 (antibody, human IgG1, kappa, L234A L235A, N297A)
heavy: B7 heavy with L11V, D53A, Q56N, Q62Y, A104G, G106Y
chain: B2 chain
light: B2 light
notes: as for B2

Kd [1]: 82.6 nM
B19: TR01H104-E22Hh/none-Hi-Kn010G3/L0011-k0 (antibody, human IgG1, kappa, L234A L235A, N297A)
heavy: B7 heavy with Q62I
chain: B2 chain
light: B2 light with S28P
notes: as for B2

Kd [1]: 100 nM
B20: TR01H106-E22Hh/none-Hi-Kn010G3/L0011-k0 (antibody, human IgG1, kappa, L234A L235A, N297A)
heavy: B7 heavy with Q62P
chain: B2 chain
light: B2 light with S28P
notes: as for B2

Further lines, the binder ahead of its results:

B1: TR01H093-E22Hh/none-Hi-Kn010G3/L0011-k0 (antibody, human IgG1, kappa, L234A L235A, N297A)
heavy: B7 heavy with Q62Y, K67Q
chain: B2 chain
light: B2 light with S28P
notes: as for B2
Kd [1]: 68 nM

B3: TR01H015-E22Hh/none-Hi-Kn010G3/TR01L006-k0 (antibody, human IgG1, kappa, L234A L235A, N297A)
heavy: B7 heavy with D53G, Q56N, Q62Y, D75A, L81I, A104S, G106S, A111I
chain: B2 chain
light: B2 light with R24Q, S25A, Q27E, Q42L, A48S, R50Q, L109V, K112E
notes: as for B2
Kd [1]: 93 nM

B6: TR01H103-E22Hh/none-Hi-Kn010G3/L0011-k0 (antibody, human IgG1, kappa, L234A L235A, N297A)
heavy: B7 heavy with Q62G
chain: B2 chain
light: B2 light with S28P
notes: as for B2
Kd [1]: 77.2 nM

B9: TR01H102-E22Hh/none-Hi-Kn010G3/L0011-k0 (antibody, human IgG1, kappa, L234A L235A, N297A)
heavy: B7 heavy with Q62F
chain: B2 chain
light: B2 light with S28P
notes: as for B2
Kd [1]: 85.4 nM

B10: TR01H099-E22Hh/none-Hi-Kn010G3/L0011-k0 (antibody, human IgG1, kappa, L234A L235A, N297A)
heavy: B7 heavy with T60Q, Q62Y
chain: B2 chain
light: B2 light with S28P
notes: as for B2
Kd [1]: 77.4 nM

B11: TR01H101-E22Hh/none-Hi-Kn010G3/L0011-k0 (antibody, human IgG1, kappa, L234A L235A, N297A)
heavy: B7 heavy with T60V, Q62Y
chain: B2 chain
light: B2 light with S28P
notes: as for B2
Kd [1]: 78.7 nM

B14: TR01H096-E22Hh/none-Hi-Kn010G3/L0011-k0 (antibody, human IgG1, kappa, L234A L235A, N297A)
heavy: B7 heavy with T60G, Q62Y
chain: B2 chain
light: B2 light with S28P
notes: as for B2
Kd [1]: 74.7 nM

B15: GCH003-G1dh/none-Hi-Kn010G3/L0000-k0 (antibody, human IgG1, kappa)
heavy: not shown
chain: B2 chain
light: B2 light
notes: single-arm antibody
Kd [2]: 5.2 nM

B18: TR01H097-E22Hh/none-Hi-Kn010G3/L0011-k0 (antibody, human IgG1, kappa, L234A L235A, N297A)
heavy: B7 heavy with T60L, Q62Y
chain: B2 chain
light: B2 light with S28P
notes: as for B2
Kd [1]: 87.6 nM

B21: TR01H095-E22Hh/none-Hi-Kn010G3/L0011-k0 (antibody, human IgG1, kappa, L234A L235A, N297A)
heavy: B7 heavy with T60F, Q62Y
chain: B2 chain
light: B2 light with S28P
notes: as for B2
Kd [1]: 90.9 nM

B22: TR01H098-E22Hh/none-Hi-Kn010G3/L0011-k0 (antibody, human IgG1, kappa, L234A L235A, N297A)
heavy: B7 heavy with T60P, Q62Y
chain: B2 chain
light: B2 light with S28P
notes: as for B2
Kd [1]: 91.4 nM

B23: TR01H094-E22Hh/none-Hi-Kn010G3/L0011-k0 (antibody, human IgG1, kappa, L234A L235A, N297A)
heavy: B7 heavy with Q62Y, K67S
chain: B2 chain
light: B2 light with S28P
notes: as for B2
Kd [1]: 70 nM
